Like-named read-outs stand apart in the source and are kept apart here. Non-standard residues stand in square brackets, D forms with d. No end group written: not given here. pomalidomide = small molecule targeting Cereblon, fused after the C-terminal end; Hyp = O=C(O)[C@@H]1C[C@@H](O)CN1

What all share (assay): MST
The target in experiment [1] is T1, atto-633-labeled preformed tau aggregates (UniProt P10636 1-441, atto-633 label, site not stated).
Experiment [2] has as its target preformed, sonicated Aβ aggregates (UniProt P05067 672-713).
In experiment [3] the target is T1, atto-633-labeled preformed tau …. The source holds these as a separate data set.
The target is the same in experiment [4]. The source holds these as a separate data set.
Experiment [5] has as its target atto-633-labeled tau monomers (UniProt P10636 1-441, atto-633 label, site not stated).

Chain of preformed, sonicated Aβ aggregates (P05067 672-713): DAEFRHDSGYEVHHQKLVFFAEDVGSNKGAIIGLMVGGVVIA
T1 sequence (P10636 other isoform, or with tags, fused parts or gaps): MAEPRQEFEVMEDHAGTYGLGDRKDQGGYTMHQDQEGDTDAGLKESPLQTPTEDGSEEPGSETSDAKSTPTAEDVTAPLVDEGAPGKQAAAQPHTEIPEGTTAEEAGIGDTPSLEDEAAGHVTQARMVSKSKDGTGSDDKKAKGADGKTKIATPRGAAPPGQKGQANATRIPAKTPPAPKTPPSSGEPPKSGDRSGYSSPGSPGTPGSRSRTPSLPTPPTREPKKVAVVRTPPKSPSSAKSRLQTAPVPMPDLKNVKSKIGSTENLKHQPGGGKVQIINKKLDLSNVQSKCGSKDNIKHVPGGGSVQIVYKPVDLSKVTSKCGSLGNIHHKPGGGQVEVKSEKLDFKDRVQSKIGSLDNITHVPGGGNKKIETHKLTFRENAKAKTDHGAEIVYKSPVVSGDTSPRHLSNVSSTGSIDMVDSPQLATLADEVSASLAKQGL
Chain of atto-633-labeled tau monomers (P10636 other isoform, or with tags, fused parts or gaps): as above

The Kd is a measure of binding affinity in units of concentration. Read a low Kd as a tighter complex. Turning to WQIVYKGSVWMINK [HET], in experiment [1], the Kd was about 3.3 µM. In the case of GWVVIAGSKLKFFA [AbCap_19], the dissociation constant Kd in experiment [2] was determined as 6.08 µM. That is a single-digit micromolar value.

With MVWGVVGSKLWFFA [AbCap_3], the Kd in experiment [3] was 4.65 µM; in experiment [2], 4.94 µM. WQIVYKGSVWMINKGSGSNLLRLTGW [HET_JAV] had a Kd in experiment [4] of 2.2 µM. WQIVYKGSVWMINK-pomalidomide (also: pomalidomide link chemistry not described) [HET-pomalidomide]: the results for the Kd in experiment [5] and in experiment [4] were about 10.9 µM and 4.8 µM, respectively. MVWGVVGSKWVFFA [AbCap_4] returned a Kd in experiment [2] of 1.55 µM. In turn, WQIVYKGSVWMINKGSGSALA[Hyp]YIP [HET fused to the VHL-moiety] showed an equilibrium dissociation constant (Kd) in experiment [1] of 3.3 µM.

For the origin of these results see patent US20230181748A1 (published 2023).
